According to patent publication US20260132197A1 (NANJING LEGEND BIOTECH, published 2026):

Columns and labels:
[1] = target: T1, human CD47 on cells (SHP-77 tumor cells, human red blood cells, CCRF-CEM cells, human CD47 CHO-K1 stable cell … (human, UniProt Q08722 19-323)); assay: flow cytometry on human RBCs;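 also: antibody binding measured by flow cytometry as geometric mean fluorescence intensity over a range of antibody concentrations, with EC50 and maximum taken from a sigmoidal dose-response fit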
T1 construct: whole, on cells; also called RBC

[2] = target: T1, human CD47 on cells (SHP-77 tumor …); assay: flow cytometry on SHP-77 cells
[3] = target: T2, wild type human CD47 (Acro Biosystems, cat. no. CD7-H5227) (human, UniProt Q08722 19-139); assay: SPR, IgG captured, CD47 in flow; exp 3
T2 construct: Bought protein used as SPR analyte; also called Human CD47 wt; wild-type CD47

Human CD47-C33G [4] = target: T3, Human CD47-C33G (human, UniProt Q08722 19-135); assay: SPR, IgG captured, CD47 in flow; exp 3
T3 construct: also called CD47 mutein with C33G mutation

[5] = target: T1, human CD47 on cells (SHP-77 tumor …); assay: flow cytometry on human CD47 CHO-K1 cells
[6] = target: T4, cynomolgus CD47 on CHO-K1 stable cell line (cynomolgus, UniProt A0A5F8AK49 19-323 (rhesus entry)); assay: flow cytometry on cynomolgus CD47 CHO-K1 cells
T4 construct: whole, on cells; also called cynomolgus CD47/CHO-K1

[7] = target: T1, human CD47 on cells (SHP-77 tumor …); assay: flow cytometry on human RBCs; poor fitting, not accurate;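 as to Fitted Maximal MFI: antibody binding measured by flow cytometry as geometric mean fluorescence intensity over a range of antibody concentrations, with EC50 and maximum taken from a sigmoidal dose-response fit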
[8] = target: T2, wild type human CD47 (Acro Biosystems, …); assay: SPR, IgG captured, CD47 in flow; exp 1
Human CD47-C33G [9] = target: T3, Human CD47-C33G; assay: SPR, IgG captured, CD47 in flow; exp 1
[10] = target: T2, wild type human CD47 (Acro Biosystems, …); assay: SPR, IgG captured, CD47 in flow; exp 4
Human CD47-C33G [11] = target: T3, Human CD47-C33G; assay: SPR, IgG captured, CD47 in flow; exp 4
[12] = target: T2, wild type human CD47 (Acro Biosystems, …); assay: SPR, IgG captured, CD47 in flow; exp 1; remark: listed apart in the source
Human CD47-C33G [13] = target: T3, Human CD47-C33G; assay: SPR, IgG captured, CD47 in flow; exp 1; remark: listed apart in the source
[14] = target: T2, wild type human CD47 (Acro Biosystems, …); assay: SPR, IgG captured, CD47 in flow; exp 2;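 also: rates derived from association and dissociation curves, KD estimated from them, C33G mutein used to avoid CD47 IgV homodimers for true monovalent affinity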
Human CD47-C33G [15] = target: T3, Human CD47-C33G; assay: SPR, IgG captured, CD47 in flow; exp 2;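 also: rates derived from association and dissociation curves, KD estimated from them, C33G mutein used to avoid CD47 IgV homodimers for true monovalent affinity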
[16] = target: T2, wild type human CD47 (Acro Biosystems, …); assay: SPR, IgG captured, CD47 in flow; exp 3; remark: listed apart in the source
Human CD47-C33G [17] = target: T3, Human CD47-C33G; assay: SPR, IgG captured, CD47 in flow; exp 3; remark: listed apart in the source
[18] = target: T2, wild type human CD47 (Acro Biosystems, …); assay: SPR, IgG captured, CD47 in flow; exp 4; remark: listed apart in the source
Human CD47-C33G [19] = target: T3, Human CD47-C33G; assay: SPR, IgG captured, CD47 in flow; exp 4; remark: listed apart in the source
[20] = target: T1, human CD47 on cells (SHP-77 tumor …); assay: flow cytometry on human RBCs; plateau not reached, not accurate;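 as to Fitted Maximal MFI: antibody binding measured by flow cytometry as geometric mean fluorescence intensity over a range of antibody concentrations, with EC50 and maximum taken from a sigmoidal dose-response fit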
Human CD47-C33G [21] = target: T3, Human CD47-C33G; assay: SPR, IgG captured, CD47 in flow; exp 1; remark: listed apart in the source

B1: 108VH5.M16 / 108VL1.M5 (antibody, human IgG4 S228P, kappa, V domains shown)
VH: EVQLVQSGAEVKKPGASVKVSCKASGYTFTHHWMHWVRQAPGQGLEWMGMIDASDGETRYAQKFQGRVTMTRDTSTSTVYMELSSLRSEDTAVYYCARLGRYYFDYWGQGTLVTVSS
VL: EIVLTQSPATLSLSPGERATLSCRASQSVSSYLAWYQQKPGQAPRLLIYGASNRATGIPARFSGSGSGTDFTLTISSLEPEDFAVYYCGESYGHLYTFGGGTKVEIKR
notes: Full-length IgG4 (S228P), kappa; also called VH5.M16 VL1.M5
For B1, the “Fitted Maximal MFI” value [1] was 45300 MFI, the EC50 [2] was 6.9 nM and the “Fitted Maximal MFI” value [2] was 44700 MFI. For the same binder, the Kd [3] was 2.6 nM, the koff [3] was 0.0019 s⁻¹ and the kon [3] was 720000 M⁻¹ s⁻¹. The Kd (Human CD47-C33G [4]) was 14 nM, the koff (Human CD47-C33G [4]) was 0.0041 s⁻¹ and the kon (Human CD47-C33G [4]) was 290000 M⁻¹ s⁻¹. For the same binder, the EC50 [5] was 1.9 nM, the EC50 [6] was 1.8 nM and the EC50 [7] was 3.9 nM.

B2: 108VH4.M4-VL1.M1 (antibody, V domains shown)
VH: EVQLVQSGAEVKKPGSSVKVSCKASGYSFTHHWIHWVRQAPGQGLEWMGMIDASDSETRLSQKFKDRVTITADKSTSTAYMELSSLRSEDTAVYYCARLGRYYFDYWGQGTTVTVSS
VL: EIVLTQSPATLSLSPGERATLSCRASENVGTYISWYQQKPGQAPRLLIYGASNRYTGIPARFSGSGSGTDFTLTISSLEPEDFAVYYCGESYGHLYTFGGGTKVEIK
notes: also called original humanized 108C10A6 antibody
With B2 the EC50 [2] was 5.5 nM, the “Fitted Maximal MFI” value [2] was 46600 MFI and the Kd [8] was 0.4 nM. The koff [8] was 0.00042 s⁻¹, the kon [8] was 1.1e+06 M⁻¹ s⁻¹ and the Kd (Human CD47-C33G [9]) was 1.8 nM. The koff (Human CD47-C33G [9]) was 0.00087 s⁻¹, the kon (Human CD47-C33G [9]) was 480000 M⁻¹ s⁻¹ and the Kd [3] was 0.41 nM. It also gave a koff [3] of 0.00041 s⁻¹, a kon [3] of 1e+06 M⁻¹ s⁻¹ and a Kd (Human CD47-C33G [4]) of 1.9 nM. It also gave a koff (Human CD47-C33G [4]) of 0.00084 s⁻¹, a kon (Human CD47-C33G [4]) of 430000 M⁻¹ s⁻¹ and a Kd [10] of 0.38 nM. For the same binder, the koff [10] was 0.00041 s⁻¹, the kon [10] was 1.1e+06 M⁻¹ s⁻¹ and the Kd (Human CD47-C33G [11]) was 1.5 nM. The koff (Human CD47-C33G [11]) was 0.00086 s⁻¹, the kon (Human CD47-C33G [11]) was 570000 M⁻¹ s⁻¹ and the Kd [12] was 0.39 nM. For the same binder, the koff [12] was 0.00039 s⁻¹, the kon [12] was 1e+06 M⁻¹ s⁻¹ and the Kd (Human CD47-C33G [13]) was 2.1 nM. The koff (Human CD47-C33G [13]) was 0.00087 s⁻¹, the kon (Human CD47-C33G [13]) was 410000 M⁻¹ s⁻¹ and the Kd [14] was 0.47 nM. It also gave a koff [14] of 0.00046 s⁻¹, a kon [14] of 980000 M⁻¹ s⁻¹ and a Kd (Human CD47-C33G [15]) of 2.6 nM. For the same binder, the koff (Human CD47-C33G [15]) was 0.00097 s⁻¹, the kon (Human CD47-C33G [15]) was 380000 M⁻¹ s⁻¹ and the Kd [16] was 0.41 nM. The koff [16] was 0.00041 s⁻¹, the kon [16] was 1e+06 M⁻¹ s⁻¹ and the Kd (Human CD47-C33G [17]) was 1.9 nM. It also gave a koff (Human CD47-C33G [17]) of 0.00084 s⁻¹, a kon (Human CD47-C33G [17]) of 430000 M⁻¹ s⁻¹ and a Kd [18] of 0.38 nM. The koff [18] was 0.00041 s⁻¹, the kon [18] was 1.1e+06 M⁻¹ s⁻¹ and the Kd (Human CD47-C33G [19]) was 1.5 nM. For the same binder, the koff (Human CD47-C33G [19]) was 0.00086 s⁻¹, the kon (Human CD47-C33G [19]) was 570000 M⁻¹ s⁻¹ and the EC50 [5] was 2.6 nM. The EC50 [6] was 4.3 nM and the EC50 [20] was 7.6 nM.

B3: 108VH10 / 108VL10.M1 (antibody, V domains shown)
VH: EVQLVESGGGLVQPGGSLRLSCAASGYSFTHHWIHWVRQAPGKGLEWVAMIDPSDSETRLSQKFKDRFTISADTSKNTAYLQMNSLRAEDTAVYYCSRLGRYYFDYWGQGTLVTVSS
VL: DIQMTQSPSSLSASVGDRVTITCRASENVGTYISWYQQKPGKAPKLLIYGASNRYTGVPSRFSGSRSGTDFTLTISSLQPEDFATYYCGESYGHLYTFGQGTKVEIK
notes: 4D5-framework series; also called VH10 VL10.M1; straight-graft antibody
B3 was tested, and the “fold drop of mono-valent binding affinity (reference not given; Table 2, experiment 1)” value (Human CD47-C33G [21]) was 34 fold, the Kd [12] was 5.6 nM and the koff [12] was 0.0013 s⁻¹. The kon [12] was 230000 M⁻¹ s⁻¹, the Kd (Human CD47-C33G [13]) was 34 nM and the koff (Human CD47-C33G [13]) was 0.0034 s⁻¹. The kon (Human CD47-C33G [13]) was 99000 M⁻¹ s⁻¹, the Kd [14] was 5.8 nM and the koff [14] was 0.0016 s⁻¹. For the same binder, the kon [14] was 280000 M⁻¹ s⁻¹, the Kd (Human CD47-C33G [15]) was 43 nM and the koff (Human CD47-C33G [15]) was 0.0038 s⁻¹. It also gave a kon (Human CD47-C33G [15]) of 87000 M⁻¹ s⁻¹, a Kd [16] of 6.1 nM and a koff [16] of 0.0014 s⁻¹. It also gave a kon [16] of 230000 M⁻¹ s⁻¹, a Kd (Human CD47-C33G [17]) of 36 nM and a koff (Human CD47-C33G [17]) of 0.003 s⁻¹. For the same binder, the kon (Human CD47-C33G [17]) was 85000 M⁻¹ s⁻¹, the Kd [18] was 5.2 nM and the koff [18] was 0.0013 s⁻¹. It also gave a kon [18] of 240000 M⁻¹ s⁻¹, a Kd (Human CD47-C33G [19]) of 28 nM and a koff (Human CD47-C33G [19]) of 0.003 s⁻¹. The kon (Human CD47-C33G [19]) was 110000 M⁻¹ s⁻¹.
